Experimental data reported in article PMC9934072, “The mechanism of thia-Michael addition catalyzed by LanC enzymes” (Proceedings of the National Academy of Sciences of the …, 2023).
Ends that are not written are not given here.

Legend:
[1] = molecular target: fluorescein-labeled Dha-Erk peptide; assay: fluorescence polarisation; LanCL1 or variant titrated (highest 400 μM, 300 μM for some variants) against 20 nM fluorescein-peptide; 0.5 mM TCEP, 0.1 mM ZnCl2, 150 mM NaCl, 100 mM Tris pH 7.5, no GSH; 15 min incubation; triplicates
[2] = molecular target: Fluorescein-labeled Erk peptide in which the Dha was substituted by L-Ala; assay: fluorescence polarisation; fluorescein-labeled peptide with LanCL1 or its variants; in the absence of GSH to avoid catalytic turnover
[3] = molecular target: T1, LanCL1 Wild Type (human LanC-like protein 1) (human, UniProt O43813 1-399); assay: fluorescence polarisation; LanCL1 or variant titrated (highest 400 μM, 300 μM for some variants) against 20 nM fluorescein-peptide; 0.5 mM TCEP, 0.1 mM ZnCl2, 150 mM NaCl, 100 mM Tris pH 7.5, no GSH; 15 min incubation; triplicates; details: both partners purified
T1 construct: LanC-like protein 1 (LanCL1), human; also called LanCL1 WT; WT-LanCL1; source: E. coli Rosetta 2 (DE3), purified (HisTrap Ni-NTA, PD-10 desalting)
T1 sequence (O43813 whole entry): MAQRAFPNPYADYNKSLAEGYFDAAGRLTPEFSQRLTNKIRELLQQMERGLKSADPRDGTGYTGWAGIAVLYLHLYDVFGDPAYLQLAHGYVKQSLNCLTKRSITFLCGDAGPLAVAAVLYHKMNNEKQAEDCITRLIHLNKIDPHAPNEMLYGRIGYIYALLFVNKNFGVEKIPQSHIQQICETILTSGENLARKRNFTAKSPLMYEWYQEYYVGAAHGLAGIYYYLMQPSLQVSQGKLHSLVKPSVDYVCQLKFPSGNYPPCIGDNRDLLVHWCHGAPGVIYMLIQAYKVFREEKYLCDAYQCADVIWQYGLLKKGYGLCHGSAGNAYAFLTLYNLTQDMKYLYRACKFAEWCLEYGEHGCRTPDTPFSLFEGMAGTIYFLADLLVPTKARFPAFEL

[4] = molecular target: T1, LanCL1 Wild Type (human LanC-like …); assay: as above; details: both partners purified; remark: listed apart in the source

Chain of human LanCL1, wild type (His6-LanCL1) (O43813 whole entry): as above

Molecule | Kd [1] [µM] | other results
LanCL1 C264A/H277A (from UniProt O43813 1-399) (enzyme) | > 112 | 
human LanCL1, wild type (His6-LanCL1) (from UniProt O43813 1-399) (enzyme) |  | fold weaker binding than Flu-Dha-Erk [2]: 4 fold
LanCL1 C264A/H277N (from UniProt O43813 1-399) (enzyme) | > 315 | 
LanCL1 C264A/H277K (from UniProt O43813 1-399) (enzyme) | > 470 | 
DHTGFLAEYVATR (also: fluorescein label, end not given here, Numbers count on: the synthetic 13-mer; Its preparation is not described; also called Flu-Ala-Erk; fluorescein-Ala-Erk) [fluorescein-labeled Ala-Erk peptide] |  | Kd [3]: > 133 µM; Kd [4]: 79.6 ± 7.6 µM
